{"source": "paper PMC2757144", "about": "(Molecular cell, 2009)", "binders": {"B1": {"name": "linker histone H5 (native, from chicken erythrocytes) (natural protein, UniProt P02259 1-190, looked up)", "chain": "MTESLVLSPAPAKPKRVKASRRSASHPTYSEMIAAAIRAEKSRGGSSRQSIQKYIKSHYKVGHNADLQIKLSIRRLLAAGVLKQTKGVGASGSFRLAKSDKAKRSPGKKKKAVRRSTSPKKAARPRKARSPAKKPKATARKARKKSRASPKKAKKPKTVKAKSRKASKAKKVKRSKPRAKSGARKSPKKK"}}, "key": {"[1]": {"target": "T1, NSBP1 (HMGN5), wild type, recombinant (mouse, UniProt Q9JL35 1-406)", "T1 sequence (looked up)": "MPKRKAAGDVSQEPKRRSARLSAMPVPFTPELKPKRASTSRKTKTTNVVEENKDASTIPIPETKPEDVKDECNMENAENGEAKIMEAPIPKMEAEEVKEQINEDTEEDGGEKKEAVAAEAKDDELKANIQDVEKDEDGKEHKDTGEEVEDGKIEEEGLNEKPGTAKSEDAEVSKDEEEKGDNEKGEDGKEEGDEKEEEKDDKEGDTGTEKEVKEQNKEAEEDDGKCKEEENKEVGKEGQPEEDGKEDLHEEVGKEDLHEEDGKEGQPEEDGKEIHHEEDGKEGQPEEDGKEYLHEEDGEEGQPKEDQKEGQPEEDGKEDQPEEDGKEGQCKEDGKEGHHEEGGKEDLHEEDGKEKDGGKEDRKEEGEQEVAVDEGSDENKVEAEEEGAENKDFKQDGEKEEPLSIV", "test": "cross-linking"}, "[2]": {"target": "T2, HMGB1 (from mouse thymus) (mouse, UniProt P63158 1-215)", "T2 sequence (looked up)": "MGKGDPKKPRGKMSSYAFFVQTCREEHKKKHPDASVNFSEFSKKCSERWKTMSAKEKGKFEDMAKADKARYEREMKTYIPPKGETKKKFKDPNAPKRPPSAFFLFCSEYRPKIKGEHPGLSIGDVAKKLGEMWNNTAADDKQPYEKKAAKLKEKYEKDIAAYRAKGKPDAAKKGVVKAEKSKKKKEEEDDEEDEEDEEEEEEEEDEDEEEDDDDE", "test": "cross-linking"}}, "data": [{"binder": "B1", "values": [{"measurement": "binding result", "setting": "[1]", "result": "binds"}, {"measurement": "binding result", "setting": "[2]", "result": "binds"}]}]}
